For two molecules, Kd results are on record in publication PMC6776071 (2019).

Bridge positions count the residues as written; N and C are the ends.

In the assay the target is thrombin (bovine alpha-thrombin) (bovine). Description: SPR. In general terms: Surface plasmon resonance follows binding to a sensor surface in real time, without labels.

B1: mature hirudin-HN protein (Hir) (natural protein)
chain: NRYSVCTETGQNLCLCEGSDLCSLDNHCEIGSNGKNRCVKGEGKPKKPQSNSDLPEEKYEPIPIEDYDK
As usually defined, the Kd is a measure of binding affinity in units of concentration. In the case of B1, binding was characterised by a dissociation constant (Kd) of 64.7 nM.

B2: M-Hir (M-hirudin-HN-His tag) (natural protein)
chain: MNRYSVCTETGQNLCLCEGSDLCSLDNHCEIGSNGKNRCVKGEGKPKKPQSNSDLPEEKYEPIPIEDYDK
modifications: disulfide 7-15, 17-29, 23-39
Regarding B2, the dissociation constant (Kd) was determined as 2970 nM.
